± gives the standard deviation of the averaged measurements.
System: Saccharomyces cerevisiae
Assay: protein stability index of tFT-peptide fusion (C-terminal peptide) (PSI (0-1 scale)); higher = more stable (slower turnover)
Conditions: temperature: 30 C
Procedure: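 MPS profiling in S. cerevisiae of the yeast C-terminome library: the last 12 aa of each annotated ORF are fused to the C-terminus of a sfGFP-mCherry timer, after a GGGS linker. Cells are FACS-sorted into 8 mCherry/sfGFP bins and deep-sequenced. PSI runs from 0 (unstable) to 1 (stable); wild type and das1Δ backgrounds, two technical replicates each.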

[1] = genetic background: das1 deletion

| Sequence | protein stability index [1] | protein stability index (genetic background: wild type) |
| --- | --- | --- |
| GSAAVAGALLLL [YNL190W C-terminal 12 aa] | 0.689 ± 0.02 | 0.664 ± 0.023 |
| VIIVPIAVHFSR [SNC1 C-terminal 12 aa] | 0.561 ± 0.024 | 0.581 ± 0.0095 |
| SQEPQYKLFRGR [MRPL16 C-terminal 12 aa] | 0.6988 ± 0.0014 | 0.731 ± 0.069 |
| EEANEDEEEDDW [MYO5 C-terminal 12 aa] | 0.6825 ± 0.0025 | 0.706 ± 0.015 |
| NASIFTVLSYCS [YEL020C-B C-terminal 12 aa] | 0.6702 ± 0.0016 | 0.668 ± 0.02 |
| NHPSNDSGNEKN [HCM1 C-terminal 12 aa] | 0.667 ± 0.025 | 0.656 ± 0.029 |
| VEPVYLCASLSL [YCR047W-A C-terminal 12 aa] | 0.666 ± 0.027 | 0.6733 ± 0.00078 |
| CSLINSCAFFCL [YDR413C C-terminal 12 aa] | 0.704 ± 0.012 | 0.647 ± 0.013 |
| QQFYKDVYAMQD [THI2 C-terminal 12 aa] | 0.74 ± 0.018 | 0.6413 ± 0.001 |
| RSIRWFREAGGK [SKI8 C-terminal 12 aa] | 0.695 ± 0.018 | 0.7202 ± 0.0028 |
| SLRPQERNLYGL [NTH1 C-terminal 12 aa] | 0.691 ± 0.021 | 0.753 ± 0.095 |
| KPEEEKETLQEE [PAF1 C-terminal 12 aa] | 0.69 ± 0.046 | 0.649 ± 0.031 |
| STCIYLYTHNSM [YBR206W C-terminal 12 aa] | 0.672 ± 0.027 | 0.673 ± 0.023 |
| YFFSSDRAIFNA [YGL041C-B C-terminal 12 aa] | 0.731 ± 0.022 | 0.7029 ± 0.0011 |
| KQSQRQVPHSIK [SPO21 C-terminal 12 aa] | 0.7194 ± 0.0004 | 0.708 ± 0.011 |
| EAAKYFREQYKN [MET6 C-terminal 12 aa] | 0.7045 ± 0.0028 | 0.7172 ± 0.0068 |
| VPSLLILSVFFS [YPS3 C-terminal 12 aa] | 0.27 ± 0.03 | 0.273 ± 0.012 |
| RGRIAAQKRIAA [RPL17A C-terminal 12 aa] | 0.667 ± 0.0084 | 0.604 ± 0.045 |
| TNWGQHKTVQNT [PPE1 C-terminal 12 aa] | 0.698 ± 0.024 | 0.713 ± 0.019 |
| LFQALKLEWEII [TEP1 C-terminal 12 aa] | 0.7038 ± 0.0018 | 0.69 ± 0.037 |
| LPFSVEPTTSRM [YFR036W-A C-terminal 12 aa] | 0.6999 ± 0.0065 | 0.687 ± 0.017 |

| Sequence | protein stability index [1] | protein stability index (genetic background: wild type) |
| --- | --- | --- |
| AQNFILFHDYLH [YLR365W C-terminal 12 aa] | 0.698 ± 0.012 | 0.711 ± 0.032 |
| LHPFREPAKINI [YDR048C C-terminal 12 aa] | 0.665 ± 0.024 | 0.701 ± 0.054 |
| TRMSSPPPSTSS [SET2 C-terminal 12 aa] | 0.695 ± 0.023 | 0.6896 ± 0.0047 |
| EYEYEDDGLFER [GCD1 C-terminal 12 aa] | 0.695 ± 0.017 | 0.692 ± 0.029 |
| DAYHKAAEENKD [MCT1 C-terminal 12 aa] | 0.6729 ± 0.0053 | 0.693 ± 0.016 |
| VVYYQMRCKKMT [BUD26 C-terminal 12 aa] | 0.678 ± 0.032 | 0.4177 ± 0.0039 |
| LVYATELIGSGS [ICE2 C-terminal 12 aa] | 0.7058 ± 0.0022 | 0.7 ± 0.073 |
| AAGKANKQFAKF [RPS11A C-terminal 12 aa] | 0.8136 ± 0.0019 | 0.807 ± 0.042 |
| SLFPSLETEDKK [MIH1 C-terminal 12 aa] | 0.674 ± 0.0077 | 0.671 ± 0.02 |
| TNYEVTDTYTNS [SOM1 C-terminal 12 aa] | 0.7107 ± 0.0011 | 0.712 ± 0.017 |
| SLDVGKILDVTI [PSR1 C-terminal 12 aa] | 0.686 ± 0.012 | 0.662 ± 0.038 |
| TDLPKWAQLDNS [PUS6 C-terminal 12 aa] | 0.729 ± 0.028 | 0.702 ± 0.026 |
| KVSPAAAAKKAL [RPS26B C-terminal 12 aa] | 0.684 ± 0.0089 | 0.6696 ± 0.00082 |
| CLSGGLLRKIPK [TMH18 C-terminal 12 aa] | 0.722 ± 0.087 | 0.6861 ± 0.006 |
| TNTVPATSASSK [RGC1 C-terminal 12 aa] | 0.68862 ± 0.00043 | 0.701 ± 0.04 |
| FSSEFSSDPTVN [YJL206C C-terminal 12 aa] | 0.69642 ± 0.00024 | 0.724 ± 0.034 |
| EVEKIVKKVLKD [DBP5 C-terminal 12 aa] | 0.7225 ± 0.0038 | 0.6553 ± 0.0058 |
| PSSEEDILHDEL [LHS1 C-terminal 12 aa] | 0.68 ± 0.046 | 0.692 ± 0.034 |
| FFFLLTSLLSPF [LCL1 C-terminal 12 aa] | 0.637 ± 0.029 | 0.592 ± 0.0065 |
| LVSYFIKVQMKL [ECM3 C-terminal 12 aa] | 0.487 ± 0.0087 | 0.443 ± 0.025 |
| AKVYFLGRDSSI [NDE1 C-terminal 12 aa] | 0.708 ± 0.016 | 0.741 ± 0.076 |

| Sequence | protein stability index [1] | protein stability index (genetic background: wild type) |
| --- | --- | --- |
| RNVDKLDVFSNS [MRM2 C-terminal 12 aa] | 0.716 ± 0.019 | 0.727 ± 0.037 |
| HRIASKIRSKLR [GIP4 C-terminal 12 aa] | 0.686 ± 0.0021 | 0.714 ± 0.03 |
| DKLSWSVRWEPR [URA4 C-terminal 12 aa] | 0.712 ± 0.021 | 0.721 ± 0.022 |
| NSVDWIYSWGKN [MIC12 C-terminal 12 aa] | 0.716 ± 0.03 | 0.74 ± 0.019 |
| WFSCSLIFRNSW [YJR140W-A C-terminal 12 aa] | 0.6314 ± 0.0035 | 0.618 ± 0.053 |
| LLASCIETTRNK [LOT6 C-terminal 12 aa] | 0.691 ± 0.008 | 0.667 ± 0.027 |
| HNILDRCLKRLS [RKM3 C-terminal 12 aa] | 0.699 ± 0.03 | 0.716 ± 0.013 |
| LCFSKDIQLDFQ [FIG4 C-terminal 12 aa] | 0.714 ± 0.013 | 0.672 ± 0.043 |
| FTLVDYDKKFHK [ADH7 C-terminal 12 aa] | 0.702 ± 0.043 | 0.78 ± 0.087 |
| VFGGCATTWIVL [ATS1 C-terminal 12 aa] | 0.6971 ± 0.0038 | 0.692 ± 0.0096 |
| YRNIPESKPQGS [YIR021W-A C-terminal 12 aa] | 0.6812 ± 0.0038 | 0.6624 ± 0.0038 |
| TVSLPSRYSRYN [ALR2 C-terminal 12 aa] | 0.6976 ± 0.0014 | 0.684 ± 0.033 |
| NVIIQDKTKKTQ [MCD4 C-terminal 12 aa] | 0.733 ± 0.028 | 0.671 ± 0.011 |
| ELYNIIVKSVPK [YRB2 C-terminal 12 aa] | 0.673 ± 0.0039 | 0.695 ± 0.045 |
| RLKSQNVVTYYK [NIP100 C-terminal 12 aa] | 0.707 ± 0.032 | 0.692 ± 0.015 |
| HIREDYLRQFGN [KTR5 C-terminal 12 aa] | 0.691 ± 0.027 | 0.616 ± 0.022 |
| LANFSNEVAMNN [SWP82 C-terminal 12 aa] | 0.696 ± 0.017 | 0.738 ± 0.13 |
| TVGYGILKVMGF [PHO91 C-terminal 12 aa] | 0.659 ± 0.012 | 0.656 ± 0.009 |
| GYACPTHYLREM [MXR1 C-terminal 12 aa] | 0.6899 ± 0.0052 | 0.7169 ± 0.0063 |
| PSYEMRYNKNER [YBL065W C-terminal 12 aa] | 0.7137 ± 0.0027 | 0.715 ± 0.0081 |
| EDWSVEELIVDL [RPO26 C-terminal 12 aa] | 0.681 ± 0.009 | 0.71 ± 0.022 |

| Sequence | protein stability index [1] | protein stability index (genetic background: wild type) |
| --- | --- | --- |
| SGIVENDFENRS [YOR1 C-terminal 12 aa] | 0.707 ± 0.013 | 0.705 ± 0.084 |
| CSTRRSYLRYKK [YBR285W C-terminal 12 aa] | 0.705 ± 0.0047 | 0.6634 ± 0.0014 |
| NESLNDYFTGIK [YBP1 C-terminal 12 aa] | 0.706 ± 0.0084 | 0.772 ± 0.16 |
| YNSGTEGTRFQI [TAR1 C-terminal 12 aa] | 0.707 ± 0.018 | 0.6849 ± 0.0015 |
| IFYLRFPSYIRG [YJR151W-A C-terminal 12 aa] | 0.614 ± 0.017 | 0.615 ± 0.0023 |
| GETDSKIKYKYR [SND2 C-terminal 12 aa] | 0.712 ± 0.06 | 0.573 ± 0.026 |
| ESTHKEAMGEKN [MNN5 C-terminal 12 aa] | 0.648 ± 0.014 | 0.675 ± 0.016 |
| HGNDFLQHVNRK [RSM22 C-terminal 12 aa] | 0.716 ± 0.03 | 0.7065 ± 0.0016 |
| ENFNEVFEAIRS [RSC3 C-terminal 12 aa] | 0.6822 ± 0.0037 | 0.709 ± 0.016 |
| YVKNLLTRFFTR [FRT1 C-terminal 12 aa] | 0.7184 ± 0.0033 | 0.732 ± 0.03 |
| SKGKNSESGGIF [PPR1 C-terminal 12 aa] | 0.699 ± 0.026 | 0.711 ± 0.054 |
| AIHLEAVSLVDC [CIS3 C-terminal 12 aa] | 0.599 ± 0.011 | 0.611 ± 0.024 |
| AIEEGAGAFLLS [UFD4 C-terminal 12 aa] | 0.706 ± 0.03 | 0.6771 ± 0.0053 |
| TVFETLTLHSAN [JSN1 C-terminal 12 aa] | 0.725 ± 0.024 | 0.68218 ± 0.00033 |
| SPGYKAYLREER [YSF3 C-terminal 12 aa] | 0.722 ± 0.012 | 0.685 ± 0.019 |
| KEDKKKKSSNCC [YPT32 C-terminal 12 aa] | 0.704 ± 0.0073 | 0.732 ± 0.014 |
| IHTPTIPKRSLT [MCX1 C-terminal 12 aa] | 0.7149 ± 0.0019 | 0.767 ± 0.052 |
| IESTLSNKLSIN [YCR013C C-terminal 12 aa] | 0.696 ± 0.024 | 0.674 ± 0.014 |
| ANFECSSWKFAS [EFM5 C-terminal 12 aa] | 0.7167 ± 0.0049 | 0.646 ± 0.0085 |

— the supplement of paper PMC10724198
